Consider six substances from patent US20240035012A1.

Read-outs that look alike come from different tables or passages of the source. Where only a bound is given, the exact number is not on record here.

The target in test [1] is prefusion stabilized trimeric SARS-CoV-2 spike protein ectodomain (SARS-CoV-2) (UniProt P0DTC2).
The target is the same in test [2]. The source holds these as a separate data set.
For test [3] the target is unchanged. Briefly: ELISA, S-ECD coated on plate, ACE2 protein titrated, anti-GFP detection. A general note: ELISA stands for enzyme-linked immunosorbent assay.
For test [4] the target is unchanged. This is another data set of the same source.
For test [5] the target is unchanged. The source holds these as a separate data set.

“ACE2-short-foldon (from UniProt Q9BYF1 18-615) (receptor)”: in test [1], the Kd (usually the concentration at which binding is half-saturated) was found to be 0.53 nM. Besides, the concentration for half-maximal inhibition (IC50) (commonly the point on the concentration scale where inhibition reaches its midpoint) in test [2] worked out at 0.05 nM.

“ACE2-rigid-foldon (from UniProt Q9BYF1 18-615) (receptor)” registered a Kd in test [1] below 0.001 nM. The same substance displayed an IC50 in test [3] of 0.03 nM.

The substance “ACE2-rigid-3HB (from UniProt Q9BYF1 18-615) (receptor)” displayed a Kd in test [1] below 0.001 nM. In addition, the IC50 in test [3] amounted to 0.03 nM.

For “ACE2-flexible-3HB (from UniProt Q9BYF1 18-615) (receptor)”, the equilibrium dissociation constant (Kd) in test [4] was determined as 4.4 nM; in test [1], 1.31 nM. Moreover, the IC50 in test [5] was determined as 0.06 nM.

As to “ACE2-flexible-foldon (from UniProt Q9BYF1 18-615) (receptor)”, the figures for the Kd in test [4] and in test [1] were 0.34 nM and 0.52 nM, respectively. For the same substance, in test [5], the half-inhibitory concentration (IC50) was 0.07 nM.

Consider “Monomeric ACE2 (ACE2 (18-615)-(GGGGS)5-HRV3C-eGFP-His8) (from UniProt Q9BYF1 18-615) (receptor)”, for which the Kd in test [4] was 34 nM. Further, the IC50 turned out to be 26.6 nM in test [5] and 27 nM in test [3].
